Molecular target: T1, filaggrin-2 (FLG2) fragment identified as prey in the double-hybrid screens, corresponding to amino acids … (human, UniProt Q5D862 2-213)
T1 construct: range 2-213; Prey
T1 sequence (looked up): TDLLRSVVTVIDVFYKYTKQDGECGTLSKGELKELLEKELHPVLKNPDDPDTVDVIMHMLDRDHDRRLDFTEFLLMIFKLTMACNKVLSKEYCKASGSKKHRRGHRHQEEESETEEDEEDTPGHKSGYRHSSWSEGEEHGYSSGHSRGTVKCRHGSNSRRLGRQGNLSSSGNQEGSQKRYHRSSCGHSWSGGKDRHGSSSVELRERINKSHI
Assay: supplementary double-hybrid experiments

B1: N-terminal fragment of SASPase-28 (amino acids 11-86, SEQ ID No.: 16) (peptide)
chain: RQHAFVPEPFDGANVVPNLWLHSFEVINDLNHWDHITKLRFLKESLRGEALGVYNRLSPQDQGDYGTVKEALLKAFG
  binding result: binds

— US20130324477A1 (L OREAL, published 2013)
